Source: patent US20260227403A1

How the values were obtained:
[1] = target: peptide P40 and peptide P38; assay: ELISA, 1 µg truncated peptide per well, 20 ng/mL mAb
[2] = target: peptides with further truncation from the N-terminus and C-terminus (beyond P40 and P38); assay: as above

binding efficiency in comparison to the full-length immunogenic peptide P1 (%) [1]: 80 to 100% | binding efficiency in comparison to the full-length immunogenic peptide P1 (%) [2]: 75%
B1: ETV1 rabbit monoclonal antibody (29E4) (antibody, V domains shown)
VH: QELEESGGDLVKPGASLTLTCTASGFFFSAENHICWVRQAPGKGLEWIGCVYIGSYVGGSGDPYYASWAKGRFTISKTSSTTVTLQMSSLTAADTATYFCARDLGSLWGPGTLVTVSS
VL: DVVMTQTASSVSAAVGGTVTIACQSSQSVYDNNNLAWFQQKPGQPPKRLIYSASTLASGVSSRFKGSGYGTQFTLTISDVQCDDAATYYCVGAFSGYIFVFGGGTEVVVK
